Values quoted from earlier work in article PMC5274714.

Target: human serum albumin (Homo sapiens) (UniProt P02768)
Assay: SPR

**Q.** Which Kd does the source give for protein G ABD3 (from UniProt P19909) here?
**A.** 4 nM
